This is an account of results in patent publication US20110123529A1 (published 2011).

Assay [1] concerns the target T1, human EGFR expressed on cells (Her-14 mouse fibroblasts; A431 carcinoma cells) (human, UniProt P00533 25-1210).
T1 construct: whole, on cells; Parental NIH3T3 clone 2.2 (3T3) cells served as EGFR-negative control; also called EGFR^+ cells
In words: phage ELISA on cells.

A further assay deals with T2, human TNF-alpha (human, UniProt P01375 77-233).
T2 construct: also called TNFα; biotinylated TNF-alpha
In words: competition ELISA: VHH preincubated with biotinylated TNF-alpha, binding to immobilized receptor extracellular domain. The protocol:
100 μl of this mixture was transferred to a well of a microtiter plate, in which the extracellular domain of the receptor was immobilized.
(In general: In an ELISA, binding on a coated surface is turned into a signal by an enzyme label.)

Assay [2] deals with T3, human MMP-12 catalytic domain (human, UniProt P39900 106-263).
T3 construct: domain: catalytic domain; Sources: Prof; H. Tschesche (Universität Bielefeld) and Biomol Research laboratories Inc (SE 138-9090); also called human macrophage elastase
In words: ELISA / dot blot on immobilized human MMP-12 catalytic domain, periplasmic extract, anti-c-myc detection. The procedure: To examine the clones selected using solid phase coated human MMP-12, plates were coated with human MMP-12 catalytic domain at a concentration of 1 μg/ml overnight at 4° C. Plates were washed 5 times with PBS/0.05% Tween-20. Wells were blocked with 1% skimmed milk for 2 hrs at room temperature. Periplasmic extracts (100 μl) were applied to the wells and incubated for 1 hour at room temperature. Plates were washed 5 times with PBS/0.05% Tween-20. Detection was performed using anti-c-myc antibody, followed by anti-mouse-HRP and ABTS/H₂O₂ as substrate. Plates were read at 405 nm after 30 minutes incubation at room temperature.
To examine the clones selected using membrane immobilized human MMP-12, 50 ng human MMP-12 catalytic domain samples were spotted on PVDF membrane as described in the manufacturers guidelines. 50 ng lysozyme was spotted as a negative control. The membranes were blocked with skimmed milk overnight at 4° C., washed 5 times with PBS and transferred to 1.5 ml tubes. Periplasmic extracts (100 μl) were tenfold diluted in 1% skimmed milk and 1 ml was applied per membrane (2 cm²) and rotated for 1 hour at room temperature. Membranes were washed 5 times with PBS/0.05% Tween-20. Detection was performed using anti-c-myc antibody, followed by anti-mouse-HRP and DAP as substrate. Membranes were incubated with substrate at room temperature until clear spots were visible.

In assay [3] the target is T4, active catalytic domain of MMP 7 (UniProt P09237 95-267).
T4 construct: domain: catalytic domain
T4 sequence (looked up): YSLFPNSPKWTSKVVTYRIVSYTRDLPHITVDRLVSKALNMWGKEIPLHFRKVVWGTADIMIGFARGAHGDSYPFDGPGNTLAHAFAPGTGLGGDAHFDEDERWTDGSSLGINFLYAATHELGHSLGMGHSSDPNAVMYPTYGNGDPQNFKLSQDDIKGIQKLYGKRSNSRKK
In words: dot blot, 50 ng catalytic domain on Hybond C-extra, periplasmic extract, anti-c-myc detection. The protocol:
(§1) In order to check for non specific binding to other MMPs a similar approach was followed in which 50 ng of active catalytic domain of MMP 1, 2, 3, 7, 9 and 13 (all from Biomol Research laboratories Inc) was immobilized on Hybond C-extra. The membranes were blocked with skimmed milk overnight at 4° C., washed 5 times with PBS and transferred to 1.5 ml tubes. Periplasmic extracts (100 μl) were tenfold diluted in 1% skimmed milk and 1 ml was applied per membrane (2 cm²) and rotated for 1 hour at room temperature. Membranes were washed 5 times with PBS/0.05% Tween-20. Detection was performed using anti-c-myc antibody, followed by anti-mouse-HRP and DAP as substrate. Membranes were incubated with substrate at room temperature until clear spots were visible.

The target in assay [4] is active catalytic domain of MMP 13 (UniProt P45452 104-274). The assay is described as above. The procedure:
as §1

The target of assay [5] is T5, active catalytic domain of MMP 1 (UniProt P03956 100-269, limits assumed).
T5 construct: domain: catalytic domain
T5 sequence (looked up): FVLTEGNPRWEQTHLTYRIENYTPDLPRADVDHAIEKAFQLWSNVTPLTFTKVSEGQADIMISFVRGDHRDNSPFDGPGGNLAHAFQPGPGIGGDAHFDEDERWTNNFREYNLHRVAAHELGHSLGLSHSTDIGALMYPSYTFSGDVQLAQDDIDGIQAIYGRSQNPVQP
The description is as above. The procedure:
as §1

The target of assay [6] is T6, active catalytic domain of MMP 3 (UniProt P08254 100-272, limits assumed).
T6 construct: domain: catalytic domain
The assay is described as above. The procedure:
as §1

For assay [7], the target named is T7, active catalytic domain of MMP 9 (UniProt P14780 107-444, limits assumed).
T7 construct: domain: catalytic domain
Described as above. The protocol:
as §1

Assay [8] concerns the target T8, active catalytic domain of MMP 2 (UniProt P08253 110-452, limits assumed).
T8 construct: domain: catalytic domain
Described as above. The protocol:
as §1

B1: EGFR-F11 (VHH)
VHH: QVQLQESGGRLVQAGGSLRLSCAASEHTFRGYAIGWFRQAPGKEREFVSSITYDGTLTNYADSVTGRFTISRDNAKNTVYLQMNSLKPEDTAVYVCAAGYSYRYTTLNQYDSWGQGTQVTVSS
notes: From the internalization selection; also called clone EGFR-F11
B1: the binding result in assay [1] is “binds”.

B2: VHH#3E-His tag (VHH)
VHH: QVQLQESGGGLVQPGGSLRLSCAASGRTFSDHSGYTYTIGWFRQAPKEREFVARIYWSSGNTYYADSVKGRFAISRDIAKNTVDLTMNNLEPEDTAVYYCAARDGIPTSRSVESYNYWGQGTQVTVSS
notes: protein was purified by IMAC; also called TNF3E; VHH TNF3E
For the molecule B2, the binding result in the assay with human TNF-alpha was “binds”.

B3: MMP-12 P1-44 (VHH)
VHH: QVQLQESGGGLVQPGGSLRLSCAASGFTFNNHWLYWVRQAQGKGLEWVSAINPGGSTVYLDSVKGRFTISRGNTKNTLYLQMNSLKSEDTAVYYCTKAMAWATDWDEYDLWGQGTQVTVSS
notes: Tested as periplasmic extract, detected through its c-myc tag
As for B3, the binding result is recorded as “binds” in assay [2]; “no binding” in assay [3]; “no binding” in assay [4]; “no binding” in assay [5]; “no binding” in assay [6]; “no binding” in [7]. For the same molecule, in assay [8], the binding result is “no binding”.

B4: MMP-12 P1-26 (VHH)
VHH: QVQLQESGGGLVRAGGSLRLSCVASGRTLSKYRMGWFRQFPGKERELVAEIEWKSSSTWYRDSVKGRFTISRDNAKNTVYLRMNSLKPEDTAVYYCAAATLGEPLVKYTYWGQGTQVTVSS
notes: as for B3
As for B4, the binding result in assay [2] is given as “binds”; in [3], “no binding”; in [4], “no binding”; in assay [5], “no binding”; in assay [6], “no binding”; in assay [7], “no binding”. Further, the binding result in assay [8] is reported as “no binding”.

B5: EGFR-B11 (VHH)
VHH: QVQLQDSGGGLVQAGGSLRLSCAASRFSSAQYAIGWFRQAPGKEREGVSYITFSGGPTGYADSVKGRFTVSRDNAKNTVYLQMNSLKPEDTAVYYCAARPYTRPGSMWVSSLYDNWGQGTQVTVSS
notes: From the internalization selection
With B5, the binding result in assay [1] was “binds”.

B6: MMP-12 P1-1 (VHH)
VHH: QVQLQESGGGLVQPGGSLRLSCVASGFTFSDYPMAWVRQAPGKGLEWISVINSGGVNTSYAASVKGRFTISRDNAKNTLFLQMNSLKPEDTAVYYCAKYSLKNEQYWRGQGTQVTVSS
notes: Tested as periplasmic extract, detected through its c-myc tag (pAX004: c-myc and hexahistidine tags)
As to B6, the binding result was “binds” in assay [2]; “no binding” in assay [3]; “no binding” in assay [4]; “no binding” in assay [5]; “no binding” in [6]; “no binding” in assay [7]. Further, the binding result in assay [8] is listed as “no binding”.

B7: MMP-12 P1-41 (VHH)
VHH: QVQLQDSGGGLVRTGDSLRLSCVVFGGTISTYAMGWFRRAPGKEREFVAAIDASGGFTEYADSVRGRFRIARDNPLSAVYLQMNSLKPEDTAFYYCAADKDRDTVVRFTTTPNEYDYWGQGTQVTVSS
notes: as for B3
In the case of B7, the binding result is given as “binds” in [2]; “no binding” in assay [3]; “no binding” in [4]; “no binding” in [5]; “no binding” in assay [6]; “no binding” in assay [7]. The binding result in assay [8] is recorded as “no binding”.

B8: MMP-12 P5-29 (VHH)
VHH: QVQLQESGGGLVQAGGSLRLSCAASGRTFTVYTTGWFRQAPGKEREFVAAIDWSGSSTYYTDSVKGRFTISRDNTKNTVYLQMNSLKPEDTAVYYCAARDAIVGVTDTSGYRYWGQGTQVTVSS
notes: Selected on active MMP-12 on nitrocellulose (Hybond-C); also called clone P5-29
On to B8, for which, in assay [2], the binding result is “binds”.
